From patent US20250276018A1 (AFFYIMMUNE THERAPEUTICS, published 2025)
Residue numbers refer to the chain shown, from its start. In names and notes the source's numbering stands. Read-outs that look alike come from different tables or passages of the source. One block for each binder: values may come before it.

Columns and labels:
[1] = molecular target: T1, c-MET on human target cells (human, UniProt P08581 25-1390); experiment: cell-based or functional assay
[2] = molecular target: T1, c-MET on human target cells; experiment: cell-based or functional assay; remark: listed apart in the source
[3] = molecular target: T1, c-MET on human target cells; experiment: cell-based or functional assay; remark: listed apart in the source
[4] = molecular target: T1, c-MET on human target cells; experiment: cell-based or functional assay; remark: listed apart in the source
[5] = molecular target: T2, AF647 labeled c-met protein (UniProt P08581 25-932, limits assumed, labeled with AlexaFluor 647 (AF647)); experiment: flow cytometry, AF647-labeled c-met protein titrated on CAR-T cells (Round 1)
T2 construct: Soluble labeled c-met protein titrated on CAR-T cells
Procedure: (§1) Binding of labeled c-MET to CAR-T cells expressing the affinity tuned c-MET scFvs was evaluated by transducing lentivirus anti-c-MET CAR particles into human T cells to form c-MET CAR-T cells incubated with AF647-labeled c-MET. […] Following a 48 hr. incubation at 37° C., the culture media was brought up to […] per well and incubated at 37° C. for 10 days.
(§2) Cells were stained on ice for 30 mins and then washed with PBS. After washing, residually bound protein on CAR T cells were measured on a flow cytometer (Beckman, CytoFLEX®). The resulting binding data was fit using a non-linear regression analysis on GraphPad Prism to calculate half effective dose concentration (EC₅₀) values. The results of this analysis are shown in FIGS. 2-5 and Tables 2-5 below.

[6] = molecular target: T2, AF647 labeled c-met protein; experiment: flow cytometry, AF647-labeled c-met protein titrated on CAR-T cells (Round 2)
Procedure: as §1, §2

[7] = molecular target: T1, c-MET on human target cells; experiment: cell-based or functional assay; remark: listed apart in the source
[8] = molecular target: T1, c-MET on human target cells; experiment: cell-based or functional assay; remark: listed apart in the source
[9] = molecular target: T1, c-MET on human target cells; experiment: cell-based or functional assay; remark: listed apart in the source
[10] = molecular target: T1, c-MET on human target cells; experiment: cell-based or functional assay; remark: listed apart in the source
[11] = molecular target: T1, c-MET on human target cells; experiment: cell-based or functional assay; remark: listed apart in the source
[12] = molecular target: T1, c-MET on human target cells; experiment: cell-based or functional assay; remark: listed apart in the source
[13] = molecular target: T1, c-MET on human target cells; experiment: cell-based or functional assay; remark: listed apart in the source
[14] = molecular target: T1, c-MET on human target cells; experiment: cell-based or functional assay; remark: listed apart in the source
[15] = molecular target: T1, c-MET on human target cells; experiment: cell-based or functional assay; remark: listed apart in the source
[16] = molecular target: T1, c-MET on human target cells; experiment: cell-based or functional assay; remark: listed apart in the source
[17] = molecular target: T1, c-MET on human target cells; experiment: cell-based or functional assay; remark: listed apart in the source
[18] = molecular target: T2, AF647 labeled c-met protein; experiment: flow cytometry, EC50 relative to parental Affy7 CAR-T cells (Round 2)
Procedure: as §1, §2

T2 sequence (P08581 25-932 limits assumed): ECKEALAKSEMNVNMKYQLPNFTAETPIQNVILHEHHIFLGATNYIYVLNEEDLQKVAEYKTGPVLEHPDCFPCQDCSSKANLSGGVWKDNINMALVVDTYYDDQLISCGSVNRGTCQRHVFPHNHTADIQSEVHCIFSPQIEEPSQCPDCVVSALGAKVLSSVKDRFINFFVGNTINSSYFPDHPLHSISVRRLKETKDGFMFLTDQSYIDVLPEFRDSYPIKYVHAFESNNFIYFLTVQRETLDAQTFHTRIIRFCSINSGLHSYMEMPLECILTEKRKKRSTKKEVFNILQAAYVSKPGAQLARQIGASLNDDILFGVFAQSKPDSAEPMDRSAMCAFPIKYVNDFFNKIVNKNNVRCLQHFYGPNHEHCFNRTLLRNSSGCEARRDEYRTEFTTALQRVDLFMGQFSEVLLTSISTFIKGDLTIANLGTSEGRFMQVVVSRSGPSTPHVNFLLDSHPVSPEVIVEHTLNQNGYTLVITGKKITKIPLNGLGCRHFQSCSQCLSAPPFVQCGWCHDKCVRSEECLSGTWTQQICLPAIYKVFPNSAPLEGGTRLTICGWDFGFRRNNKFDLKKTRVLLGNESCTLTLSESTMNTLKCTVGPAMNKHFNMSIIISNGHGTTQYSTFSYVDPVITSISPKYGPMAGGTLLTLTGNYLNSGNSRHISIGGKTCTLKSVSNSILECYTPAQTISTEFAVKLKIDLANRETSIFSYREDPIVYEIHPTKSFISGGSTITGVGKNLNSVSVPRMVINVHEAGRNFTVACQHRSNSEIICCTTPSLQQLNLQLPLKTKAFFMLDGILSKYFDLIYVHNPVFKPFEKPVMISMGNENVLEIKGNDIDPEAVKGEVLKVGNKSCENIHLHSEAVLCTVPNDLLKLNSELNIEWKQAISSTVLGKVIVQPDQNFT
T1 sequence (P08581 25-1390): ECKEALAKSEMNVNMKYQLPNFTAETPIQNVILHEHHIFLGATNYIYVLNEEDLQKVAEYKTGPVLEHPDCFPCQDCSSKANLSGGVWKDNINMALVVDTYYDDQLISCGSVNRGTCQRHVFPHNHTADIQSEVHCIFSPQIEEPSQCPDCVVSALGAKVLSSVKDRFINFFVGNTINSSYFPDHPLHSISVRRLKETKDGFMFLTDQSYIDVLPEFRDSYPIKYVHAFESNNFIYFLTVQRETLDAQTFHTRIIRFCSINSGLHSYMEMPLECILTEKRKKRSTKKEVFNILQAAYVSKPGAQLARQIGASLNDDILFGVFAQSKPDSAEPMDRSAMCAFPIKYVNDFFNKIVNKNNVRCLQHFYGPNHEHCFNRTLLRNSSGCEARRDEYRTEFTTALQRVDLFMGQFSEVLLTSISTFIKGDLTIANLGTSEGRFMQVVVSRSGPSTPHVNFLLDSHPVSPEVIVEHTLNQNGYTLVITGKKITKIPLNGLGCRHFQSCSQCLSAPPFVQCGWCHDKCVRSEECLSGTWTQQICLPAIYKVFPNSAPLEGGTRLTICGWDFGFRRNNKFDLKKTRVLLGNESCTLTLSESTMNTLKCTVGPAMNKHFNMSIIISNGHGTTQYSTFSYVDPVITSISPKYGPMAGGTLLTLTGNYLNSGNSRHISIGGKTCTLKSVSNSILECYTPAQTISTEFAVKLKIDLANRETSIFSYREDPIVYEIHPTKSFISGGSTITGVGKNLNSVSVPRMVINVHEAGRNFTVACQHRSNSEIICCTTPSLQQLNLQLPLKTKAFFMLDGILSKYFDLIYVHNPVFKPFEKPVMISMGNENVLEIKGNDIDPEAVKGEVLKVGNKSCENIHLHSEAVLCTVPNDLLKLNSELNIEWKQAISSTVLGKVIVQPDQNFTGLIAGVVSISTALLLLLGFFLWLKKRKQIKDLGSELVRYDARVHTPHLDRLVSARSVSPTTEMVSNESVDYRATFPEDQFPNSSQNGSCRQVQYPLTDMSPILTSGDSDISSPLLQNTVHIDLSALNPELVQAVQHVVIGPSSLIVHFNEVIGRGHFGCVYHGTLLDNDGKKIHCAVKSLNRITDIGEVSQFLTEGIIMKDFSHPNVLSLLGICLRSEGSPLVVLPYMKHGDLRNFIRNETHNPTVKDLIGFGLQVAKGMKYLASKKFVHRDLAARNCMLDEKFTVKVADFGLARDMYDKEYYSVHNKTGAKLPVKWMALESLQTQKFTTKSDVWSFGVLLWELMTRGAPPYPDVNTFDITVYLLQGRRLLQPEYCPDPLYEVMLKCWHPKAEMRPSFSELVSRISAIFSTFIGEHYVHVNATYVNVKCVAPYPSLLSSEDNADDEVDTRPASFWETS

EC50 [5]: 20 nM
EC50 [6]: 20 nM
B1: Affy6 CAR (control) (other)
chain: GSEQKLISEEDLGSQVQLVQSGAEVKKPGASVKVSCKASGYIFTAYTMHWVRQAPGQGLEWMGWIKPNNGLANYAQKFQGRVTMTRDTSISTAYMELSRLRSDDTAVYYCARSEITTEFDYWGQGTLVTVSSGGGGSGGGGSGGGGSDIVLTQSPDSLAVSLGERATINCKSSESVDSYANSFMHWYQQKPGQPPKLLIYRASTRESGVPDRFSGSGSRTDFTLTISSLQAEDVAVYYCQQSKEDPLTFGGGTKVEIKASTTTPAPRPPTPAPTIASQPLSLRPEACRPAAGGAVHTRGLDFACDFWVLVVVGGVLACYSLLVTVAFIIFWVRSKRSRLLHSDYMNMTPRRPGPTRKHYQPYAPPRDFAAYRSLRVKFSRSADAPAYQQGQNQLYNELNLGRREEYDVLDKRRGRDPEMGGKPRRKNPQEGLYNELQKDKMAEAYSEIGMKGERRRGKGHDGLYQGLSTATKDTYDALHMQALPPR
notes: Chimeric antigen receptor on transduced human T cells; P2A remnant not included; also called parent Affy6 CAR-T cells; parental Affy6
cytotoxicity, Normal Human Lung Cells, 8 hrs [1]: 38.4
cytotoxicity, Normal Human Lung Cells, 16 hrs [1]: 47.1
cytotoxicity, Normal Human Lung Cells, 24 hrs [1]: 54.7
cytotoxicity, Normal Human Lung Cells, 32 hrs [1]: 63.1
cytotoxicity, Normal Human Lung Cells, 40 hrs [1]: 76.4
cytotoxicity, Normal Human Lung Cells, 48 hrs [1]: 85.2
cytotoxicity, Normal Human Liver Cells, 8 hrs [2]: 28.4
cytotoxicity, Normal Human Liver Cells, 16 hrs [2]: 47.1
cytotoxicity, Normal Human Liver Cells, 24 hrs [2]: 59
cytotoxicity, Normal Human Liver Cells, 32 hrs [2]: 67.9
cytotoxicity, Normal Human Liver Cells, 40 hrs [2]: 76.8
cytotoxicity, Normal Human Liver Cells, 48 hrs [2]: 83.6
cytotoxicity, Normal Human Kidney Cells, 8 hrs [3]: 25.7
cytotoxicity, Normal Human Kidney Cells, 16 hrs [3]: 45.4
cytotoxicity, Normal Human Kidney Cells, 24 hrs [3]: 57
cytotoxicity, Normal Human Kidney Cells, 32 hrs [3]: 65.5
cytotoxicity, Normal Human Kidney Cells, 40 hrs [3]: 73
cytotoxicity, Normal Human Kidney Cells, 48 hrs [3]: 78.8
cytotoxicity, Normal Human Colon Cells, 8 hrs [4]: 24.6
cytotoxicity, Normal Human Colon Cells, 16 hrs [4]: 37.7
cytotoxicity, Normal Human Colon Cells, 24 hrs [4]: 46.4
cytotoxicity, Normal Human Colon Cells, 32 hrs [4]: 57.3
cytotoxicity, Normal Human Colon Cells, 40 hrs [4]: 72.3
cytotoxicity, Normal Human Colon Cells, 48 hrs [4]: 83.8

EC50 [5]: 50 nM
EC50 [6]: 100 nM
B2: Affy7 CAR (control) (other)
chain: GSEQKLISEEDLGSQVQLQQSGPELVRPGASVKMSCRASGYTFTSYWLHWVKQRPGQGLEWIGMIDPSNSDTRFNPNFKDKATLNVDRSSNTAYMLLSSLTSADSAVYYCATYGSYVSPLDYWGQGTSVTVSSGGGGSGGGGSGGGGSDIMMSQSPSSLTVSVGEKVTVSCKSSQSLLYTSSQKNYLAWYQQKPGQSPKLLIYWASTRESGVPDRFTGSGSGTDFTLTITSVKADDLAVYYCQQYYAYPWTFGGGTKLEIKRASTTTPAPRPPTPAPTIASQPLSLRPEACRPAAGGAVHTRGLDFACDFWVLVVVGGVLACYSLLVTVAFIIFWVRSKRSRLLHSDYMNMTPRRPGPTRKHYQPYAPPRDFAAYRSLRVKFSRSADAPAYQQGQNQLYNELNLGRREEYDVLDKRRGRDPEMGGKPRRKNPQEGLYNELQKDKMAEAYSEIGMKGERRRGKGHDGLYQGLSTATKDTYDALHMQALPPR
notes: residues of P2A left at the intracellular C-terminus are not included; also called parent Affy7 CAR-T cells; parental Affy7
percent cytotoxicity, SNU638, 24 hrs [7]: 78.6%
percent cytotoxicity, SNU638, 48 hrs [7]: 95.9%
percent cytotoxicity, SNU638, 72 hrs [7]: 99.5%
percent cytotoxicity, Hs746T, 24 hrs [8]: 87.1%
percent cytotoxicity, Hs746T, 48 hrs [8]: 97.6%
percent cytotoxicity, Hs746T, 72 hrs [8]: 99.2%
percent cytotoxicity, H1993, 24 hrs [9]: 85.6%
percent cytotoxicity, H1993, 48 hrs [9]: 97.7%
percent cytotoxicity, H1993, 72 hrs [9]: 99.6%
cytotoxicity, Normal Human Lung Cells, 8 hrs [10]: 14.7
cytotoxicity, Normal Human Lung Cells, 16 hrs [10]: 33.3
cytotoxicity, Normal Human Lung Cells, 24 hrs [10]: 50.7
cytotoxicity, Normal Human Lung Cells, 32 hrs [10]: 57.1
cytotoxicity, Normal Human Lung Cells, 40 hrs [10]: 59.9
cytotoxicity, Normal Human Lung Cells, 47 hrs [10]: 56.5
cytotoxicity, Normal Human Lung Cells, 8 hrs [11]: 31.8
cytotoxicity, Normal Human Lung Cells, 16 hrs [11]: 35.7
cytotoxicity, Normal Human Lung Cells, 24 hrs [11]: 43.2
cytotoxicity, Normal Human Lung Cells, 32 hrs [11]: 55.8
cytotoxicity, Normal Human Lung Cells, 40 hrs [11]: 67.5
cytotoxicity, Normal Human Lung Cells, 48 hrs [11]: 76
cytotoxicity, Normal Human Liver Cells, 8 hrs [12]: 17.7
cytotoxicity, Normal Human Liver Cells, 16 hrs [12]: 30.1
cytotoxicity, Normal Human Liver Cells, 24 hrs [12]: 38.6
cytotoxicity, Normal Human Liver Cells, 32 hrs [12]: 46.2
cytotoxicity, Normal Human Liver Cells, 40 hrs [12]: 59.1
cytotoxicity, Normal Human Liver Cells, 48 hrs [12]: 68.7
cytotoxicity, Normal Human Liver Cells, 8 hrs [13]: 23.4
cytotoxicity, Normal Human Liver Cells, 16 hrs [13]: 36.9
cytotoxicity, Normal Human Liver Cells, 24 hrs [13]: 50.7
cytotoxicity, Normal Human Liver Cells, 32 hrs [13]: 64
cytotoxicity, Normal Human Liver Cells, 40 hrs [13]: 71.2
cytotoxicity, Normal Human Liver Cells, 48 hrs [13]: 73.4
cytotoxicity, Normal Human Kidney Cells, 8 hrs [14]: 12.5
cytotoxicity, Normal Human Kidney Cells, 16 hrs [14]: 27.2
cytotoxicity, Normal Human Kidney Cells, 24 hrs [14]: 32.4
cytotoxicity, Normal Human Kidney Cells, 32 hrs [14]: 36.9
cytotoxicity, Normal Human Kidney Cells, 40 hrs [14]: 47.4
cytotoxicity, Normal Human Kidney Cells, 48 hrs [14]: 59
cytotoxicity, Normal Human Kidney Cells, 8 hrs [15]: 32.7
cytotoxicity, Normal Human Kidney Cells, 16 hrs [15]: 43.5
cytotoxicity, Normal Human Kidney Cells, 24 hrs [15]: 53.8
cytotoxicity, Normal Human Kidney Cells, 32 hrs [15]: 61.2
cytotoxicity, Normal Human Kidney Cells, 40 hrs [15]: 70.2
cytotoxicity, Normal Human Kidney Cells, 48 hrs [15]: 76.5
cytotoxicity, Normal Human Colon Cells, 8 hrs [16]: 13.8
cytotoxicity, Normal Human Colon Cells, 16 hrs [16]: 29.3
cytotoxicity, Normal Human Colon Cells, 24 hrs [16]: 34.9
cytotoxicity, Normal Human Colon Cells, 32 hrs [16]: 42.8
cytotoxicity, Normal Human Colon Cells, 40 hrs [16]: 54.1
cytotoxicity, Normal Human Colon Cells, 48 hrs [16]: 60.1
cytotoxicity, Normal Human Colon Cells, 8 hrs [17]: 28.5
cytotoxicity, Normal Human Colon Cells, 16 hrs [17]: 33.9
cytotoxicity, Normal Human Colon Cells, 24 hrs [17]: 43.2
cytotoxicity, Normal Human Colon Cells, 32 hrs [17]: 57
cytotoxicity, Normal Human Colon Cells, 40 hrs [17]: 69.7
cytotoxicity, Normal Human Colon Cells, 48 hrs [17]: 79.4

Fold Change [18]: 1830 fold
EC50 [6]: 183000 nM
B3: Affy7-Y6I CAR (other)
chain: B2 chain with Y113I
notes: CAR on transduced human T cells; Y to I in HC CDR3; P2A remnant not included; also called MycT-Affy7-Y6I CAR-SSTR2
percent cytotoxicity, SNU638, 24 hrs [7]: 67%
percent cytotoxicity, SNU638, 48 hrs [7]: 83.6%
percent cytotoxicity, SNU638, 72 hrs [7]: 93.2%
percent cytotoxicity, Hs746T, 24 hrs [8]: 1.5%
percent cytotoxicity, Hs746T, 48 hrs [8]: 45.4%
percent cytotoxicity, Hs746T, 72 hrs [8]: 69.4%
percent cytotoxicity, H1993, 24 hrs [9]: 11.7%
percent cytotoxicity, H1993, 48 hrs [9]: 45.8%
percent cytotoxicity, H1993, 72 hrs [9]: 73.5%
cytotoxicity, Normal Human Lung Cells, 8 hrs [11]: 23.1
cytotoxicity, Normal Human Lung Cells, 16 hrs [11]: 27.5
cytotoxicity, Normal Human Lung Cells, 24 hrs [11]: 26.9
cytotoxicity, Normal Human Lung Cells, 32 hrs [11]: 29.7
cytotoxicity, Normal Human Lung Cells, 40 hrs [11]: 29.9
cytotoxicity, Normal Human Lung Cells, 48 hrs [11]: 30.9
cytotoxicity, Normal Human Liver Cells, 8 hrs [13]: 7.8
cytotoxicity, Normal Human Liver Cells, 16 hrs [13]: 6.2
cytotoxicity, Normal Human Liver Cells, 24 hrs [13]: 7.4
cytotoxicity, Normal Human Liver Cells, 32 hrs [13]: 17.8
cytotoxicity, Normal Human Liver Cells, 40 hrs [13]: 16.4
cytotoxicity, Normal Human Liver Cells, 48 hrs [13]: 13.6
cytotoxicity, Normal Human Kidney Cells, 8 hrs [15]: 20.5
cytotoxicity, Normal Human Kidney Cells, 16 hrs [15]: 20.9
cytotoxicity, Normal Human Kidney Cells, 24 hrs [15]: 25.8
cytotoxicity, Normal Human Kidney Cells, 32 hrs [15]: 27.6
cytotoxicity, Normal Human Kidney Cells, 40 hrs [15]: 29.7
cytotoxicity, Normal Human Kidney Cells, 48 hrs [15]: 33.9
cytotoxicity, Normal Human Colon Cells, 8 hrs [17]: 15.1
cytotoxicity, Normal Human Colon Cells, 16 hrs [17]: 18.8
cytotoxicity, Normal Human Colon Cells, 24 hrs [17]: 20.8
cytotoxicity, Normal Human Colon Cells, 32 hrs [17]: 28.9
cytotoxicity, Normal Human Colon Cells, 40 hrs [17]: 32.5
cytotoxicity, Normal Human Colon Cells, 48 hrs [17]: 36.4
